Experimental data: IntAct's records for PubMed 29774127

What was measured:
setb1_human SETDB1 = setb1_human SETDB1 (UniProt Q15047)
ehmt2_human EHMT2 = ehmt2_human EHMT2 (UniProt Q96KQ7)
ctnb1_human CTNNB1 = ctnb1_human CTNNB1 (UniProt P35222)

Measured: effect of a mutation on the interaction

Parafibromin (Homo sapiens) (from UniProt Q6P1J9) Y290F;Y293F;Y315F
increasing interaction: SETDB1, Q15047-2 | setb1_human SETDB1 | ehmt2_human EHMT2 | ctnb1_human CTNNB1
